This is an account of results in the Immune Epitope Database (IEDB).

The Kd is the free concentration of one partner at which half of the binding sites on the other are occupied at equilibrium, for simple one-to-one binding. For orientation: IC50 means the concentration at which inhibition is half-maximal.

The target of assay [1] is HLA-C*12:03. The assay can be described thus: IEDB peptide-MHC binding, purified MHC/direct/fluorescence; filed as Kd, often an IC50 or EC50 that approximates it; ≥ and ≤ were set here for values at or beyond the usual limits of such assays.
Assay [2] deals with HLA-A*69:01. The description is as above.
Assay [3] deals with HLA-A*02:01. The assay is described as above.
The target of assay [4] is HLA-B*40:01. The description is as above.
The target in assay [5] is HLA-B*15:01. The description is as above.
In assay [6] the target is HLA-A*03:01. The assay is described as above. The settings on record: source organism: Escherichia coli O157:H7.
Assay [7] concerns the target HLA-B*58:01. The description is as above.
For assay [8], the target named is HLA-A*11:01. The assay is described as above. The settings on record: source organism: Escherichia coli O157:H7.
Assay [9] addresses HLA-B*18:01. The description is as above.
For assay [10], the target named is HLA-B*44:02. Described as above. The settings on record: source organism: Escherichia coli O157:H7.
Assay [11] concerns the target HLA-B*27:05. The description is as above. The conditions noted are these: source organism: Escherichia coli O157:H7.
The target in assay [12] is HLA-B*46:01. Described as above. The conditions noted are these: source organism: Escherichia coli O157:H7.
Assay [13] addresses HLA-A*01:01. The description is as above. The settings on record: source organism: Escherichia coli O157:H7.
Assay [14] has as its target HLA-A*31:01. Described as above. The conditions noted are these: source organism: Escherichia coli O157:H7.
Assay [15] has as its target HLA-B*07:02. The assay is described as above.
Assay [16] addresses HLA-A*24:02. The description is as above.
In assay [17] the target is HLA-B*58:01. The assay can be described thus: IEDB peptide-MHC binding, purified MHC/competitive/radioactivity; filed as Kd, often an IC50 or EC50 that approximates it; ≥ and ≤ were set here for values at or beyond the usual limits of such assays.
Assay [18] deals with HLA-B*57:01. The description is as above.
In assay [19] the target is HLA-B*53:01. The description is as above. The conditions noted are these: source organism: Dengue virus 3 Martinique/1243/1999.
In assay [20] the target is HLA-C*03:03. The assay can be described thus: IEDB peptide-MHC binding, purified MHC/direct/fluorescence; filed as Kd, often an IC50 or EC50 that approximates it; ≥ and ≤ were set here for values at or beyond the usual limits of such assays.
For assay [21], the target named is HLA-B*35:01. The assay is described as follows: IEDB peptide-MHC binding, purified MHC/competitive/fluorescence; filed as Kd, often an IC50 or EC50 that approximates it; ≥ and ≤ were set here for values at or beyond the usual limits of such assays.
The target of assay [22] is HLA-A*11:01. The assay is described as follows: IEDB peptide-MHC binding, purified MHC/competitive/fluorescence; ≥ and ≤ were set here for values at or beyond the usual limits of such assays.
Assay [23] addresses HLA-C*05:01. The assay can be described thus: IEDB peptide-MHC binding, purified MHC/direct/fluorescence; filed as Kd, often an IC50 or EC50 that approximates it; ≥ and ≤ were set here for values at or beyond the usual limits of such assays. The conditions noted are these: source organism: Vaccinia virus Copenhagen.
Assay [24] addresses HLA-A*02:01. The assay can be described thus: IEDB peptide-MHC binding, purified MHC/competitive/fluorescence; filed as Kd, often an IC50 or EC50 that approximates it; ≥ and ≤ were set here for values at or beyond the usual limits of such assays.
For assay [25], the target named is HLA-A*01:01. The description is as above.
The target of assay [26] is HLA-B*08:01. The description is as above.
Assay [27] concerns the target HLA-B*39:01. Described as above. The settings on record: source organism: Yersinia pestis Nepal516.
Assay [28] deals with HLA-A*30:01. The assay can be described thus: IEDB peptide-MHC binding, purified MHC/competitive/radioactivity; filed as Kd, often an IC50 or EC50 that approximates it; ≥ and ≤ were set here for values at or beyond the usual limits of such assays. The conditions noted are these: source organism: Dengue virus 4 Philippines/H241/1956.
Assay [29] has as its target HLA-A*68:02. The assay is described as above. The settings on record: source organism: Dengue virus 2 Jamaica/1409/1983.
Assay [30] concerns the target HLA-B*15:01. The assay can be described thus: IEDB peptide-MHC binding, purified MHC/competitive/fluorescence; filed as Kd, often an IC50 or EC50 that approximates it; ≥ and ≤ were set here for values at or beyond the usual limits of such assays. The settings on record: source organism: Escherichia coli.
In assay [31] the target is HLA-A*03:01. The description is as above. The conditions noted are these: source organism: Escherichia coli.
Assay [32] addresses HLA-A*68:02. The description is as above. The conditions noted are these: source organism: Burkholderia mallei GB8 horse 4.
Assay [33] addresses HLA-B*57:01. The assay can be described thus: IEDB peptide-MHC binding, purified MHC/direct/fluorescence; filed as Kd, often an IC50 or EC50 that approximates it; ≥ and ≤ were set here for values at or beyond the usual limits of such assays. The settings on record: source organism: Giardia lamblia ATCC 50803.
The target of assay [34] is HLA-B*15:17. The assay is described as above. The conditions noted are these: source organism: Giardia lamblia ATCC 50803.
Assay [35] addresses HLA-B*46:01. The assay is described as follows: IEDB peptide-MHC binding, purified MHC/competitive/fluorescence; filed as Kd, often an IC50 or EC50 that approximates it; ≥ and ≤ were set here for values at or beyond the usual limits of such assays. The settings on record: source organism: Giardia lamblia ATCC 50803.
[36] abbreviates: source organism: Escherichia coli O157:H7.
The mark [37] stands for this setting: source organism: Dengue virus 3 Martinique/1243/1999.
Where [38] appears, read: source organism: Dengue virus 1 Singapore/S275/1990.
Where [39] appears, read: source organism: Francisella tularensis subsp. holarctica LVS.
The mark [40] stands for this setting: source organism: Dengue virus 1 Brazil/97-11/1997.
[41] abbreviates: source organism: Vaccinia virus Copenhagen.
[42] abbreviates: source organism: Camelpox virus M-96.
The mark [43] stands for this setting: source organism: Mycobacterium tuberculosis C.
Where [44] appears, read: source organism: Yersinia pestis Nepal516.
Where [45] appears, read: source organism: Dengue virus 4 Philippines/H241/1956.
Where [46] appears, read: source organism: Dengue virus 2 Peru/IQT2913/1996.
Where [47] appears, read: source organism: Dengue virus 2 Jamaica/1409/1983.
Setting [48] is: source organism: Escherichia coli F11.
Where [49] appears, read: source organism: Giardia lamblia ATCC 50803.

Regarding FIFPASKVY, the dissociation constant Kd in [1] (source organism: Homo sapiens) was ≤ 1 nM.

Take LPPERRQPF: the equilibrium dissociation constant (Kd) in assay [2] (setting [36]), in [3] (setting [36]), in assay [4] (setting [36]), in assay [5] (setting [36]), in assay [6] and in assay [7] (setting [36]) was ≥ 20000 nM in each case. Moreover, the Kd in [8], in [9] (setting [36]), in assay [10], in assay [11], in assay [12] and in [13] was ≥ 20000 nM each time. In addition, the values for the equilibrium dissociation constant (Kd) in assay [14], in [15] (setting [36]) and in assay [16] (setting [36]) were ≥ 20000 nM, 376 nM and ≥ 20000 nM, respectively.

As to MGITAEWLW, the dissociation constant (Kd) in assay [17] (setting [37]) stood at 0.436 nM; in [18] (setting [37]), 8.74 nM; in [19], 6.6 nM.

On to AAVKAGASI, for which the dissociation constant (Kd) is 2060 nM in assay [15] (source organism: Mammarenavirus juninense) and ≤ 1 nM in assay [20] (source organism: Mammarenavirus machupoense).

For ASSVLLWMAS, the Kd in assay [17] (setting [38]) came to 690 nM; in assay [18] (setting [38]), 15100 nM.

Regarding MEVGNTVAF, the Kd in assay [4] (setting [39]) is 1.6 nM; in [9] (setting [39]), ≤ 1 nM; in [21] (source organism: Francisella tularensis subsp. tularensis FSC198), 558 nM.

VASVELPNSL: the equilibrium dissociation constant (Kd) in assay [17] (setting [40]) is 149 nM; in assay [18] (setting [40]), 4530 nM.

Take DRSDGYFLK: the IC50 in assay [22] (setting [41]) was 31800 nM. This lies in the double-digit micromolar range.

In the case of YFDDVTAFL, the Kd worked out at 428 nM in [2] (setting [42]), 5 nM in assay [3] (setting [42]) and 14 nM in assay [23].

Take YLDYDTIYV: the Kd was ≤ 1 nM in [23] and 0.4 nM in [24] (setting [41]).

For the sequence VASVNMVSRL, the equilibrium dissociation constant (Kd) in [17] (setting [37]) was found to be 1050 nM; in assay [18] (setting [37]) it was 2240 nM.

As to EQFWCGIPY, the Kd in [5] (setting [43]) was found to be 78.8 nM; in assay [21] (setting [43]), 0.2 nM.

Consider STASSWSY, for which, in [25] (source organism: Influenza A virus (A/swine/Ohio/24366/2007(H1N1))), the Kd was ≥ 20000 nM.

MLMAASRAL: the equilibrium dissociation constant (Kd) in assay [1] (setting [44]) amounted to 361 nM; in assay [20] (setting [44]), 2 nM; in assay [24] (setting [44]), 1.1 nM; in assay [21] (setting [44]), 47.1 nM; in [26] (setting [44]), 39.6 nM; in assay [27], 1.2 nM.

In the case of GASKRSWPLN, the Kd worked out at 257 nM in assay [28], 763 nM in [17] (setting [45]) and 106 nM in assay [18] (setting [45]).

For the sequence ESWEEIPYLG, the Kd in assay [17] (setting [46]) amounted to 90.3 nM; in assay [18] (setting [46]) it was 78.3 nM.

For YLYASFCTV, the values for the Kd in assay [1] (setting [41]) and in assay [24] (setting [41]) were 34 nM and 3.2 nM, respectively.

As for EYIWRSLKI, the Kd in assay [16] (source organism: Entamoeba histolytica) is ≤ 1 nM.

Take STSTWVTYGT: the dissociation constant (Kd) in [17] (setting [47]) was determined as 1120 nM; in [18] (setting [47]), 130 nM; in [29], 72.8 nM.

In assay [25] (source organism: Bacillus cereus G9241), ITDITKYLY came in with a dissociation constant (Kd) of 2.1 nM.

ITDYIVGYY: the Kd is 2400 nM in [30], ≥ 20000 nM in assay [31] and 3 nM in [25] (source organism: Escherichia coli).

On to FDERRNRYL, for which, in assay [26] (source organism: Influenza A virus (A/parakeet/Narita/92A/98(H9N2))), the dissociation constant Kd is ≥ 20000 nM.

For the sequence LSDICSGLQ, the equilibrium dissociation constant (Kd) in assay [25] (source organism: Escherichia coli O139:H28 str. E24377A) was ≥ 20000 nM.

Sequence ATLEDDRER came in with an IC50 in assay [22] (source organism: Variola virus) of 49400 nM. This counts as double-digit micromolar.

In the case of RTDAWSYPV, the figures for the Kd in assay [20] (setting [48]), in assay [24] (setting [48]) and in assay [25] (setting [48]) were 1460 nM, 0.8 nM and 13.5 nM, respectively.

Take KASQEGPLPE: the Kd in assay [17] (setting [40]) was 669 nM; in assay [18] (setting [40]), 894 nM.

Regarding WAWPFAAVL, the equilibrium dissociation constant (Kd) in assay [1] (source organism: Burkholderia mallei GB8 horse 4) is ≤ 1 nM; in [32] it was 53.5 nM.

Regarding IASPILFPF, the equilibrium dissociation constant (Kd) in assay [7] (setting [49]) was 3 nM; in assay [1] (setting [49]) it was 594 nM; in assay [33], 14.8 nM; in assay [34], 1.5 nM; in assay [20] (setting [49]), 3 nM; in assay [35], 92.3 nM.
